Earlier results on one substance are cited in PMC2879707.

The data set concerns the target F-actin (Oryctolagus cuniculus) (UniProt P68135).

What is called Kd is a measure of binding affinity in units of concentration. For the substance espin (from UniProt Q63618), the Kd was 150 nM.
